For data set [1], the target named is esterase EstOF4 from Bacillus pseudofirmus OF4 (Bacillus pseudofirmus OF4). Kind of data set: SEC; Superdex200 10/30 column calibrated with cytochrome C, carbonic anhydrase, bovine serum albumin and alcohol dehydrogenase; native molecular weight of purified EstOF4. A general note: SEC sorts molecules by how far they enter the pores of the column.
Substrate in data set [2]: CC(=O)Oc1ccc([N+](=O)[O-])cc1
Kind of data set: purified protein. Format: biochemical, Alkalihalophilus pseudofirmus. Particulars: 50 mM Tris-HCl pH 8.5, 50 °C.

Substrate in data set [3]: CCC(=O)Oc1ccc([N+](=O)[O-])cc1
Kind of data set: purified protein. Format: biochemical, Alkalihalophilus pseudofirmus. The following applies: 50 mM Tris-HCl pH 8.5, 50 °C.

Substrate in data set [4]: CCCC(=O)Oc1ccc([N+](=O)[O-])cc1
As to the kind of experiment: purified protein. Format: biochemical, Alkalihalophilus pseudofirmus. Particulars: 50 mM Tris-HCl pH 8.5, 50 °C.

Substrate in data set [5]: CCCCCC(=O)Oc1ccc([N+](=O)[O-])cc1
Kind of data set: purified protein. Format: biochemical, Alkalihalophilus pseudofirmus. Particulars: 50 mM Tris-HCl pH 8.5, 50 °C.

Substrate in data set [6]: CCCCCCCC(=O)Oc1ccc([N+](=O)[O-])cc1
Kind of data set: purified protein. Format: biochemical, Alkalihalophilus pseudofirmus. Particulars: 50 mM Tris-HCl pH 8.5, 50 °C.

Substrate in data set [7]: CCCCCCCCCC(=O)Oc1ccc([N+](=O)[O-])cc1
Kind of data set: purified protein. Format: biochemical, Alkalihalophilus pseudofirmus. The following applies: 50 mM Tris-HCl pH 8.5, 50 °C.

Substrate in data set [8]: CCCCCCCCCCCC(=O)Oc1ccc([N+](=O)[O-])cc1
As to the kind of experiment: purified protein. Format: biochemical, Alkalihalophilus pseudofirmus. Particulars: 50 mM Tris-HCl pH 8.5, 50 °C.

With “esterase EstOF4 from Bacillus pseudofirmus OF4 (enzyme)”, in data set [1], the stoichiometry N (in general, the number of molecules, sites or subunits per partner or assembly) was determined as 2.

B1: EstOF4 (Alkalihalophilus pseudofirmus OF4) (protein)
chain: MKVVAPKPFTFEGGDRAVLLLHGFTGTTADVRMIGRHLQKEGYTCHAPLYKGHGVPPEELVHTGPEDWWKDVEAGYNYLKEKGHEEIAVCGLSLGGVFSLKIGYTLPVKGIVPMCAPVRPKTEDAMYKGVLAYAREYKKREQKSDDVINQEMEAFKPMGTLSALGELIQDVHNHLDHIYSPTFVVQARNDEMIDVESANIIHDQIESDEKSLKWYEESGHVITLDKEKEQLHEDILQFLEGLDWTV
notes: full-length ORF (246 aa, 741 bp, no signal peptide), pET-28a NdeI/BamHI, N-terminal His tag, E. coli BL21(DE3); about 35 kDa SDS-PAGE, 64 kDa native dimer
For B1, the Km (as a rule, the concentration of substrate that gives half-maximal velocity) was found to be 37 ± 6 µM in “purified protein [2]”; 94 ± 9 µM in “purified protein [3]”; 90 ± 9 µM in the data set “purified protein [4]”; 60 ± 6 µM in the data set “purified protein [5]”; 102 ± 3 µM in the data set “purified protein [6]”; 173 ± 8 µM in the data set “purified protein [7]”. The Km in “purified protein [8]” amounted to 42 ± 5 µM. The kcat (as a rule, the number of substrate molecules converted per active site and unit of time at saturation) in the data set “purified protein [2]” was determined as 2.07 ± 0.0667 s⁻¹; in the data set “purified protein [3]”, 3.52 ± 0.0667 s⁻¹; in “purified protein [4]”, 3.65 ± 0.0667 s⁻¹; in the data set “purified protein [5]” it was 5.48 ± 0.1 s⁻¹; in “purified protein [6]”, 1.75 ± 0.0333 s⁻¹; in “purified protein [7]”, 1.17 ± 0.0667 s⁻¹. Also, the kcat in the data set “purified protein [8]” is 0.1 ± 0.0167 s⁻¹. Also, the kcat/Km (in general, the turnover number divided by the Michaelis constant) turned out to be 56700 M⁻¹ s⁻¹ in the data set “purified protein [2]”; 38300 M⁻¹ s⁻¹ in “purified protein [3]”; 40000 M⁻¹ s⁻¹ in “purified protein [4]”; 91700 M⁻¹ s⁻¹ in the data set “purified protein [5]”; 16700 M⁻¹ s⁻¹ in the data set “purified protein [6]”; 6670 M⁻¹ s⁻¹ in the data set “purified protein [7]”. In addition, the kcat/Km in “purified protein [8]” was 1670 M⁻¹ s⁻¹.

The values are drawn from publication PMC3618048, “A Novel Alkaliphilic Bacillus Esterase Belongs to the 13th Bacterial Lipolytic Enzyme Family” (PLoS ONE, 2013).
